Assay results as given in the supplement of paper PMC10567573.

B1: FUT8 (parent)
chain: YPSYKVREKIETVKYPTYPEAEK

Variants of: B1
Assay: protein stability index of a GFP-peptide fusion (GPS, HEK-293T) (PSI 1-6); higher = more stable
Settings: c terminus: native
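Also: lentivirally expressed fusions sorted by FACS into six bins by GFP to DsRed ratio, PSI derived from sequencing read proportions per bin multiplied by bin number.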

Variant	protein stability index
YPSYKVPEKIETVKYPTYPEAEK [R7P]	4.67
YPSYKVKEKIETVKYPTYPEAEK [R7K]	4.16
YPSYKVYEKIETVKYPTYPEAEK [R7Y]	3.6
YPSYKVMEKIETVKYPTYPEAEK [R7M]	4.48
YPSYKVNEKIETVKYPTYPEAEK [R7N]	4.59
YPSYKVLEKIETVKYPTYPEAEK [R7L]	4.48
YPSYKVTEKIETVKYPTYPEAEK [R7T]	3.96
YPSYKVSEKIETVKYPTYPEAEK [R7S]	4.49
YPSYKVQEKIETVKYPTYPEAEK [R7Q]	4.45
YPSYKVVEKIETVKYPTYPEAEK [R7V]	3.85
YPSYKVWEKIETVKYPTYPEAEK [R7W]	2.79
YPSYKVIEKIETVKYPTYPEAEK [R7I]	3.73
YPSYKVREHIETVKYPTYPEAEK [K9H]	3.62
YPSYKVREMIETVKYPTYPEAEK [K9M]	4.24
YPSYKVREEIETVKYPTYPEAEK [K9E]	4.5
YPSYKVRECIETVKYPTYPEAEK [K9C]	4.43
YPSYKVREVIETVKYPTYPEAEK [K9V]	3.23
YPSYKVRESIETVKYPTYPEAEK [K9S]	4.28
YPSYKVREWIETVKYPTYPEAEK [K9W]	1.99
YPSYKVREAIETVKYPTYPEAEK [K9A]	4.31
YPSYKVRELIETVKYPTYPEAEK [K9L]	2.91
YPSYKVRENIETVKYPTYPEAEK [K9N]	4.38
YPSYKVREQIETVKYPTYPEAEK [K9Q]	4.25
YPSYKVREIIETVKYPTYPEAEK [K9I]	3.1
YPSYKVRERIETVKYPTYPEAEK [K9R]	3.98

Variant	protein stability index
YPSYKVREFIETVKYPTYPEAEK [K9F]	2.64
YPSYKVREDIETVKYPTYPEAEK [K9D]	4.14
YPSYKVRETIETVKYPTYPEAEK [K9T]	4.44
YPSYKVREYIETVKYPTYPEAEK [K9Y]	2.56
YPSYKVREPIETVKYPTYPEAEK [K9P]	4.74
YPSYKVREGIETVKYPTYPEAEK [K9G]	4.12
YPSYKVREKFETVKYPTYPEAEK [I10F]	4.36
YPSYKVREKNETVKYPTYPEAEK [I10N]	4.87
YPSYKVREKMETVKYPTYPEAEK [I10M]	4.35
YPSYKVREKCETVKYPTYPEAEK [I10C]	4.21
YPSYKVREKQETVKYPTYPEAEK [I10Q]	4.17
YPSYKVREKLETVKYPTYPEAEK [I10L]	4.28
YPSYKVREKWETVKYPTYPEAEK [I10W]	2.87
YPSYKVREKKETVKYPTYPEAEK [I10K]	4.57
YPSYKVREKTETVKYPTYPEAEK [I10T]	4.97
YPSYKVREKAETVKYPTYPEAEK [I10A]	4.19
YPSYKVREKRETVKYPTYPEAEK [I10R]	4.56
YPSYKVREKSETVKYPTYPEAEK [I10S]	4.46
YPSYKVREKVETVKYPTYPEAEK [I10V]	4.46
YPSYKVREKPETVKYPTYPEAEK [I10P]	4.09
YPSYKVREKYETVKYPTYPEAEK [I10Y]	4.29
YPSYKVREKDETVKYPTYPEAEK [I10D]	4.71
YPSYKVREKHETVKYPTYPEAEK [I10H]	4.27
YPSYKVREKEETVKYPTYPEAEK [I10E]	4.61
YPSYKVREKIATVKYPTYPEAEK [E11A]	4.3

Variant	protein stability index
YPSYKVREKIYTVKYPTYPEAEK [E11Y]	3.44
YPSYKVREKIKTVKYPTYPEAEK [E11K]	4.32
YPSYKVREKIPTVKYPTYPEAEK [E11P]	4.12
YPSYKVREKITTVKYPTYPEAEK [E11T]	3.5
YPSYKVREKIMTVKYPTYPEAEK [E11M]	3.46
YPSYKVREKIQTVKYPTYPEAEK [E11Q]	4.27
YPSYKVREKICTVKYPTYPEAEK [E11C]	3.91
YPSYKVREKILTVKYPTYPEAEK [E11L]	4.01
YPSYKVREKIGTVKYPTYPEAEK [E11G]	3.59
YPSYKVREKIVTVKYPTYPEAEK [E11V]	3.59
YPSYKVREKIHTVKYPTYPEAEK [E11H]	3.8
YPSYKVREKISTVKYPTYPEAEK [E11S]	4.07
YPSYKVREKINTVKYPTYPEAEK [E11N]	3.1
YPSYKVREKIFTVKYPTYPEAEK [E11F]	3.15
YPSYKVREKIITVKYPTYPEAEK [E11I]	3.34
YPSYKVRFKIETVKYPTYPEAEK [E8F]	2.02
YPSYKVRTKIETVKYPTYPEAEK [E8T]	3.43
YPSYKVRSKIETVKYPTYPEAEK [E8S]	3.57
YPSYKVRGKIETVKYPTYPEAEK [E8G]	3.92
YPSYKVRKKIETVKYPTYPEAEK [E8K]	3.59
YPSYKVRDKIETVKYPTYPEAEK [E8D]	4.26
YPSYKVRAKIETVKYPTYPEAEK [E8A]	3.96
YPSYKVRMKIETVKYPTYPEAEK [E8M]	2.69
YPSYKVRVKIETVKYPTYPEAEK [E8V]	1.75
YPSYKVRCKIETVKYPTYPEAEK [E8C]	2.62

Variant	protein stability index
YPSYKVRLKIETVKYPTYPEAEK [E8L]	1.99
YPSYKVRQKIETVKYPTYPEAEK [E8Q]	4.01
YPSYKVRWKIETVKYPTYPEAEK [E8W]	2.13
YPSYKVRPKIETVKYPTYPEAEK [E8P]	3.72
YPSYKVRYKIETVKYPTYPEAEK [E8Y]	2.28
YPSYKVRRKIETVKYPTYPEAEK [E8R]	3.74
YPSYKVRHKIETVKYPTYPEAEK [E8H]	4.28
YPSYKVRNKIETVKYPTYPEAEK [E8N]	4.27
YPSYKVRIKIETVKYPTYPEAEK [E8I]	2.62
YPSYKVREKIECVKYPTYPEAEK [T12C]	4.17
YPSYKVREKIELVKYPTYPEAEK [T12L]	3.14
YPSYKVREKIEAVKYPTYPEAEK [T12A]	3.92
YPSYKVREKIEDVKYPTYPEAEK [T12D]	4.57
YPSYKVREKIEHVKYPTYPEAEK [T12H]	3.25
YPSYKVREKIEEVKYPTYPEAEK [T12E]	4.33
YPSYKVREKIEPVKYPTYPEAEK [T12P]	4.49
YPSYKVREKIEQVKYPTYPEAEK [T12Q]	4.94
YPSYKVREKIERVKYPTYPEAEK [T12R]	4.05
YPSYKVREKIEFVKYPTYPEAEK [T12F]	3.06
YPSYKVREKIENVKYPTYPEAEK [T12N]	3.62
YPSYKVREKIEGVKYPTYPEAEK [T12G]	4.01
YPSYKVREKIEKVKYPTYPEAEK [T12K]	4.71
